Our source for the stoichiometry N values is paper doi:10.1101/2020.12.02.404004.

The assay addresses VcSiaP R125A Q54R1 L173R1 with N-terminal HisTEV tag (Vibrio cholerae) (UniProt Q9KR64). As to the kind of experiment: crystal structure.

Substance “VcSiaP R125A Q54R1 L173R1 with N-terminal HisTEV tag (from UniProt Q9KR64 23-321) (natural protein)” had a stoichiometry N of 2.
